Data as given in the supplement of paper PMC3353916.
± gives the standard deviation of the averaged measurements.

System: Sindbis virus TE/5'2J-GFP
Test: percent infected (GFP+ in RFP+ ISG-expressing cells); higher = more infection (less antiviral activity)
Description: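 Confirmatory testing of 87 ISGs. Triplicate wells of BHK/HA-Zeo (control) or BHK/NZAP-Zeo (ZAP) cells were transduced with lentiviruses co-expressing a human ISG plus TagRFP, then infected 48 h later with SINV TE/5'2J-GFP (moi 5). The % GFP+ cells among RFP+ cells was measured by flow cytometry at 8 h post infection. Fluc lentivirus served as control. Three independent experiments.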

[1] = experiment: confirmatory screen 1, BHK/HA-Zeo (control)
[2] = experiment: confirmatory screen 1, BHK/NZAP-Zeo (ZAP)
[3] = experiment: confirmatory screen 2, BHK/HA-Zeo (control)
[4] = experiment: confirmatory screen 2, BHK/NZAP-Zeo (ZAP)
[5] = experiment: confirmatory screen 3, BHK/HA-Zeo (control)
[6] = experiment: confirmatory screen 3, BHK/NZAP-Zeo (ZAP)
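Note: Interferon-defective BHK-21 derivatives, ZAP line overexpressing the rat ZAP N-terminal zinc finger domain fused to Zeocin resistance, GFP scored within live singlet TagRFP+ cells.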

Sequence: MKTFTWTLGVLFFLLVDTGHCRGGQFKIKKINQRRYPRATDGKEEAKKCAYTFLVPEQRITGPICVNTKGQDASTIKDMITRMDLENLKDVLSRQKREIDVLQLVVDVDGNIVNEVKLLRKESRNMNSRVTQLYMQLLHEIIRKRDNSLELSQLENKILNVTTEMLKMATRYRELEVKYASLTDLVNNQSVMITLLEEQCLRIFSRQDTHVSPPLVQVVPQHIPNSQQYTPGLLGGNEIQRDPGYPRDLMPPPDLATSPTKSPFKIPPVTFINEGPFKDCQQAKEAGHSVSGIYMIKPENSNGPMQLWCENSLDPGGWTVIQKRTDGSVNFFRNWENYKKGFGNIDGEYWLGLENIYMLSNQDNYKLLIELEDWSDKKVYAEYSSFRLEPESEFYRLRLGTYQGNAGDSMMWHNGKQFTTLDRDKDMYAGNCAHFHKGGWWYNACAHSNLNGVWYRGGHYRSKHQDGIFWAEYRGGSYSLRAVQMMIKPID [ANGPTL1]
- percent infected [1]: 94.8 ± 1.7%
- percent infected [2]: 76.2 ± 1.6%
- percent infected [3]: 95.66 ± 0.28%
- percent infected [4]: 94.3 ± 2.2%
- percent infected [5]: 94.73 ± 0.38%
- percent infected [6]: 94.71 ± 0.28%

Sequence: MEKLLCFLVLTSLSHAFGQTDMSRKAFVFPKESDTSYVSLKAPLTKPLKAFTVCLHFYTELSSTRGYSIFSYATKRQDNEILIFWSKDIGYSFTVGGSEILFEVPEVTVAPVHICTSWESASGIVEFWVDGKPRVRKSLKKGYTVGAEASIILGQEQDSFGGNFEGSQSLVGDIGNVNMWDFVLSPDEINTIYLGGPFSPNVLNWRALKYEVQGEVFTKPQLWP [CRP]
- percent infected [1]: 94.7 ± 1.9%
- percent infected [2]: 71.6 ± 4%
- percent infected [3]: 95.07 ± 0.27%
- percent infected [4]: 94.33 ± 0.72%
- percent infected [5]: 89.4 ± 1.5%
- percent infected [6]: 92.68 ± 0.15%

Sequence: MRSRLLLSVAHLPTIRETTEEMLLGGPGQEPPPSPSLDDYVRSISRLAQPTSVLDKATAQGQPRPPHRPAQACRKGRPAVSLRDITARFSGQQPTLPMADTVDPLDWLFGESQEKQPSQRDLPRRTGPSAGLWGPHRQMDSSKPMGAPRGRLCEARMPGHSLARPPQDGQQSSDLRSWTFGQSAQAMASRHRPRPSSVLRTLYSHLPVIHEL [C10orf10]
- percent infected [1]: 94.8 ± 1.7%
- percent infected [2]: 63.9 ± 6.1%
- percent infected [3]: 95.247 ± 0.086%
- percent infected [4]: 94.42 ± 0.28%
- percent infected [5]: 94.16 ± 0.87%
- percent infected [6]: 92.8 ± 0.27%

Sequence: MALEIHMSDPMCLIENFNEQLKVNQEALEILSAITQPVVVVAIVGLYRTGKSYLMNKLAGKNKGFSVASTVQSHTKGIWIWCVPHPNWPNHTLVLLDTEGLGDVEKADNKNDIQIFALALLLSSTFVYNTVNKIDQGAIDLLHNVTELTDLLKARNSPDLDRVEDPADSASFFPDLVWTLRDFCLGLEIDGQLVTPDEYLENSLRPKQGSDQRVQNFNLPRLCIQKFFPKKKCFIFDLPAHQKKLAQLETLPDDELEPEFVQQVTEFCSYIFSHSMTKTLPGGIMVNGSRLKNLVLTYVNAISSGDLPCIENAVLALAQRENSAAVQKAIAHYDQQMGQKVQLPMETLQELLDLHRTSEREAIEVFMKNSFKDVDQSFQKELETLLDAKQNDICKRNLEASSDYCSALLKDIFGPLEEAVKQGIYSKPGGHNLFIQKTEELKAKYYREPRKGIQAEEVLQKYLKSKESVSHAILQTDQALTETEKKKKEAQVKAEAEKAEAQRLAAIQRQNEQMMQERERLHQEQVRQMEIAKQNWLAEQQKMQEQQMQEQAAQLSTTFQAQNRSLLSELQHAQRTVNNDDPCVLL [GBP5]
- percent infected [1]: 95.4 ± 1.4%
- percent infected [2]: 60 ± 5.7%
- percent infected [3]: 97.28 ± 0.17%
- percent infected [4]: 96.34 ± 0.093%
- percent infected [5]: 87.3 ± 1.1%
- percent infected [6]: 86.3 ± 0.93%

Sequence: MLQRGLWPWRTRLLPTPGTWRPARPWPLPPPPQVLRVKLCGNVKYYQSHHYSTVVPPDEITVIYRHGLPLVTLTLPSRKERCQFVVKPMLSTVGSFLQDLQNEDKGIKTAAIFTADGNMISASTLMDILLMNDFKLVINKIAYDVQCPKREKPSNEHTAEMEHMKSLVHRLFTILHLEESQKKREHHLLEKIDHLKEQLQPLEQVKAGIEAHSEAKTSGLLWAGLALLSIQGGALAWLTWWVYSWDIMEPVTYFITFANSMVFFAYFIVTRQDYTYSAVKSRQFLQFFHKKSKQQHFDVQQYNKLKEDLAKAKESLKQARHSLCLQMQVEELNEKN [CCDC109B]
- percent infected [1]: 92.6 ± 2.3%
- percent infected [2]: 57.4 ± 2%
- percent infected [3]: 97.29 ± 0.17%
- percent infected [4]: 95.61 ± 0.13%
- percent infected [5]: 95.11 ± 0.48%
- percent infected [6]: 93.64 ± 0.74%
